# In paper PMC9482650, “Quantitative fragmentomics allow affinity mapping of interactomes” (Nature Communications, 2022):
# T1: DFNB31_3, Q9P202
# T1 sequence (Q9P202 811-907, limits assumed, looked up): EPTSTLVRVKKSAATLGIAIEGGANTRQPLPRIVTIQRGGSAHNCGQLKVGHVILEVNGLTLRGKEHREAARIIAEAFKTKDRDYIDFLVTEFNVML
# T2: DLG3_1, Q92796
# T2 sequence (Q92796 125-227, limits assumed, looked up): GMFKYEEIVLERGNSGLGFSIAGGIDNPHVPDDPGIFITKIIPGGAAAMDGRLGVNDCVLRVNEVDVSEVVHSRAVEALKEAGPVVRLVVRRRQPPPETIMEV
# T3: LIN7A, O14910
# T3 sequence (O14910 103-200, limits assumed, looked up): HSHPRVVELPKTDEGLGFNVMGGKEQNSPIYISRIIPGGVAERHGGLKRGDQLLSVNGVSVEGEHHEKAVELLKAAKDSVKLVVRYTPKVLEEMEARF
# T4: MPDZ_5, O75970
# T4 sequence (O75970 695-796, limits assumed, looked up): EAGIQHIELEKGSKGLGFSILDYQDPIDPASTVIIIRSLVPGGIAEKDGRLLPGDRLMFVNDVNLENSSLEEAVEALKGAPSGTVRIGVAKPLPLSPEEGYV
# T5: MPP6, Q9NZW5
# T5 sequence (Q9NZW5 125-219, limits assumed, looked up): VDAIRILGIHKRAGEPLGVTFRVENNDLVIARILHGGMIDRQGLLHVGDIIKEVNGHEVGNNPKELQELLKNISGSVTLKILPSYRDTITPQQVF
# T6: NHERF3_1, Q5T2W1
# T6 sequence (Q5T2W1 4-100, limits assumed, looked up): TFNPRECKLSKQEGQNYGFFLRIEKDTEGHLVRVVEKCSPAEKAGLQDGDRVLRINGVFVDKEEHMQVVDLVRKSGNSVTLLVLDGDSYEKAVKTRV
# T7: NHERF3_4, Q5T2W1
# T7 sequence (Q5T2W1 373-468, limits assumed, looked up): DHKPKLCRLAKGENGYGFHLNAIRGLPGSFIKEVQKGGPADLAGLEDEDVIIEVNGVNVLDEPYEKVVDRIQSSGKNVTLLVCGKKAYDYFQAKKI
# T8: PCLO, Q9Y6V0
# T8 sequence (Q9Y6V0 4491-4600, limits assumed, looked up): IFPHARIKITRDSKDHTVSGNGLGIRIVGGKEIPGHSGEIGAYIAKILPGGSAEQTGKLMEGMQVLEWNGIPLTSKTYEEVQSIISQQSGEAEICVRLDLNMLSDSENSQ
# T9: PDZD2_2, O15018
# T9 sequence (O15018 329-429, limits assumed, looked up): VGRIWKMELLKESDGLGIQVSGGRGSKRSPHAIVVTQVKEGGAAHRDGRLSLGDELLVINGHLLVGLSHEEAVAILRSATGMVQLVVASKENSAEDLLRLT
# T10: SIPA1L2, Q9P2F8
# T10 sequence (Q9P2F8 945-1036, limits assumed, looked up): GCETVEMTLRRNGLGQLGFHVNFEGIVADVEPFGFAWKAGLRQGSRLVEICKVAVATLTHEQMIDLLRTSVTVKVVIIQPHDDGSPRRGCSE
# T11: SNTA1, Q13424
# T11 sequence (Q13424 82-180, limits assumed, looked up): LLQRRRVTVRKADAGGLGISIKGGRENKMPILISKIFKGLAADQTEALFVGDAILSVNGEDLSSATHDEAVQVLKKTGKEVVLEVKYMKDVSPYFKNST
# B1: LRRC4, Q9HBW1 (peptide)
# chain: TKDKVQETQI
# B2: GJC1, P36383 (peptide)
# chain: SGDGKTSVWI
# B3: SLCO2B1, O94956 (peptide)
# chain: PGKKPEDSRV
# B4: NEB, P20929 (peptide)
# chain: MLPANYVEAI
# B5: SLC2A3, P11169 (peptide)
# chain: EPAKETTTNV
# Molecular target: CASK, O14936
# Sequence (O14936 487-570): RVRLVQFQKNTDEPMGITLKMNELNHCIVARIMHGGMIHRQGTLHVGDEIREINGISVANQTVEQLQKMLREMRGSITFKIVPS
# Test: holdup assay
# Parameters: key: below the threshold = too weak to quantify, mostly under pKd 3.1 to 4
# Details: plain residues with an end cap or a label only (N-terminal biotin on a linker: ado-ado)
row,Binder,pKd
1,B1,below the threshold
2,B2,below the threshold
3,B3,below the threshold
4,B4,below the threshold
5,B5,below the threshold

# Molecular target: T1, DFNB31_3, Q9P202
# Test: holdup assay
# Parameters: key: below the threshold = too weak to quantify, mostly under pKd 3.1 to 4
# Details: plain residues with an end cap or a label only (N-terminal biotin on a linker: ado-ado)
row,Binder,pKd
1,B1,4.11
2,B2,below the threshold
3,B3,below the threshold
4,B4,below the threshold
5,B5,4.05

# Molecular target: DLG1_1, Q12959
# Test: holdup assay
# Parameters: key: below the threshold = too weak to quantify, mostly under pKd 3.1 to 4
# Details: plain residues with an end cap or a label only (N-terminal biotin on a linker: ado-ado)
row,Binder,pKd
1,B1,4.42
2,B2,below the threshold
3,B3,3.62
4,B4,below the threshold
5,B5,3.94

# Molecular target: DLG1_2, Q12959
# Test: holdup assay
# Parameters: key: below the threshold = too weak to quantify, mostly under pKd 3.1 to 4
# Details: plain residues with an end cap or a label only (N-terminal biotin on a linker: ado-ado)
row,Binder,pKd
1,B1,5.03
2,B2,below the threshold
3,B3,3.78
4,B4,below the threshold
5,B5,4.42

# Molecular target: DLG1_3, Q12959
# Test: holdup assay
# Parameters: key: below the threshold = too weak to quantify, mostly under pKd 3.1 to 4
# Details: plain residues with an end cap or a label only (N-terminal biotin on a linker: ado-ado)
row,Binder,pKd
1,B1,4.18
2,B2,below the threshold
3,B3,below the threshold
4,B4,below the threshold
5,B5,3.6

# Molecular target: T2, DLG3_1, Q92796
# Test: holdup assay
# Parameters: key: below the threshold = too weak to quantify, mostly under pKd 3.1 to 4
# Details: plain residues with an end cap or a label only (N-terminal biotin on a linker: ado-ado)
row,Binder,pKd
1,B1,3.81
2,B2,below the threshold
3,B3,below the threshold
4,B4,below the threshold
5,B5,3.48

# Molecular target: FRMPD2_3, Q68DX3
# Sequence (Q68DX3 1073-1166): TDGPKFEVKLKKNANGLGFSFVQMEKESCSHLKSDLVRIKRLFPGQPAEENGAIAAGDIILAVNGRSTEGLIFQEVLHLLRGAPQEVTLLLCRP
# Test: holdup assay
# Parameters: key: below the threshold = too weak to quantify, mostly under pKd 3.1 to 4
# Details: plain residues with an end cap or a label only (N-terminal biotin on a linker: ado-ado)
row,Binder,pKd
1,B1,below the threshold
2,B2,below the threshold
3,B3,below the threshold
4,B4,below the threshold
5,B5,below the threshold

# Molecular target: FRMPD3, Q5JV73
# Sequence (Q5JV73 12-100): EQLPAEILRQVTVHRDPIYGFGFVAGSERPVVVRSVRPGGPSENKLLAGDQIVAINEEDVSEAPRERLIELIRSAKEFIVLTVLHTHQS
# Test: holdup assay
# Parameters: key: below the threshold = too weak to quantify, mostly under pKd 3.1 to 4
# Details: plain residues with an end cap or a label only (N-terminal biotin on a linker: ado-ado)
row,Binder,pKd
1,B1,below the threshold
2,B2,below the threshold
3,B3,below the threshold
4,B4,below the threshold
5,B5,below the threshold

# Molecular target: GOPC, Q9HD26
# Test: holdup assay
# Parameters: key: below the threshold = too weak to quantify, mostly under pKd 3.1 to 4
# Details: plain residues with an end cap or a label only (N-terminal biotin on a linker: ado-ado)
row,Binder,pKd
1,B1,4.47
2,B2,below the threshold
3,B3,below the threshold
4,B4,below the threshold
5,B5,3.73

# Molecular target: GRASP, Q7Z6J2
# Sequence (Q7Z6J2 96-193): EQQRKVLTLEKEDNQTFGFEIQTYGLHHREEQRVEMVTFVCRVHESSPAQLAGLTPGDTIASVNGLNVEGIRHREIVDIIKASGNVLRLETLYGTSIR
# Test: holdup assay
# Parameters: key: below the threshold = too weak to quantify, mostly under pKd 3.1 to 4
# Details: plain residues with an end cap or a label only (N-terminal biotin on a linker: ado-ado)
row,Binder,pKd
1,B1,below the threshold
2,B2,below the threshold
3,B3,below the threshold
4,B4,below the threshold
5,B5,3.69

# Molecular target: GRID2IP_2, A4D2P6
# Sequence (A4D2P6 272-370): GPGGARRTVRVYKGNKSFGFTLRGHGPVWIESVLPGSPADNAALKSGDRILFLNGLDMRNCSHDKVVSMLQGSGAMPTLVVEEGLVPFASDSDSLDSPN
# Test: holdup assay
# Parameters: key: below the threshold = too weak to quantify, mostly under pKd 3.1 to 4
# Details: plain residues with an end cap or a label only (N-terminal biotin on a linker: ado-ado)
row,Binder,pKd
1,B1,4.17
2,B2,4.33
3,B3,below the threshold
4,B4,below the threshold
5,B5,3.65

# Molecular target: GRIP2_5, Q9C0E4
# Sequence (Q9C0E4 544-642): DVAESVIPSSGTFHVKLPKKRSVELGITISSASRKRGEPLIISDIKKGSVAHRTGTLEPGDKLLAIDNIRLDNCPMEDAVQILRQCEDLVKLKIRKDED
# Test: holdup assay
# Parameters: key: below the threshold = too weak to quantify, mostly under pKd 3.1 to 4
# Details: plain residues with an end cap or a label only (N-terminal biotin on a linker: ado-ado)
row,Binder,pKd
1,B1,below the threshold
2,B2,below the threshold
3,B3,3.5
4,B4,below the threshold
5,B5,below the threshold

# Molecular target: GRIP2_6, Q9C0E4
# Sequence (Q9C0E4 648-740): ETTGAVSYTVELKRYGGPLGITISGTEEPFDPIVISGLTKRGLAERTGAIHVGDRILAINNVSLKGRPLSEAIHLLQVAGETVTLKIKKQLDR
# Test: holdup assay
# Parameters: key: below the threshold = too weak to quantify, mostly under pKd 3.1 to 4
# Details: plain residues with an end cap or a label only (N-terminal biotin on a linker: ado-ado)
row,Binder,pKd
1,B1,below the threshold
2,B2,3.55
3,B3,below the threshold
4,B4,below the threshold
5,B5,below the threshold

# Molecular target: HTRA2, O43464
# Sequence (O43464 355-458): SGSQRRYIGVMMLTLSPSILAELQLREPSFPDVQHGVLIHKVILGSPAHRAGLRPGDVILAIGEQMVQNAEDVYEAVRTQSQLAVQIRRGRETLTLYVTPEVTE
# Test: holdup assay
# Parameters: key: below the threshold = too weak to quantify, mostly under pKd 3.1 to 4
# Details: plain residues with an end cap or a label only (N-terminal biotin on a linker: ado-ado)
row,Binder,pKd
1,B1,below the threshold
2,B2,4.25
3,B3,below the threshold
4,B4,below the threshold
5,B5,below the threshold

# Molecular target: IL16_3, Q14005
# Sequence (Q14005 1107-1207): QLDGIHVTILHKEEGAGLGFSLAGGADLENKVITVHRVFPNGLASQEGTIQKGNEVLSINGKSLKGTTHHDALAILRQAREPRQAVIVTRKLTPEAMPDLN
# Test: holdup assay
# Parameters: key: below the threshold = too weak to quantify, mostly under pKd 3.1 to 4
# Details: plain residues with an end cap or a label only (N-terminal biotin on a linker: ado-ado)
row,Binder,pKd
1,B1,below the threshold
2,B2,below the threshold
3,B3,below the threshold
4,B4,below the threshold
5,B5,below the threshold

# Molecular target: T3, LIN7A, O14910
# Test: holdup assay
# Parameters: key: below the threshold = too weak to quantify, mostly under pKd 3.1 to 4
# Details: plain residues with an end cap or a label only (N-terminal biotin on a linker: ado-ado)
row,Binder,pKd
1,B1,3.51
2,B2,below the threshold
3,B3,below the threshold
4,B4,below the threshold
5,B5,below the threshold

# Molecular target: MAGI2_2, Q86UL8
# Sequence (Q86UL8 410-522): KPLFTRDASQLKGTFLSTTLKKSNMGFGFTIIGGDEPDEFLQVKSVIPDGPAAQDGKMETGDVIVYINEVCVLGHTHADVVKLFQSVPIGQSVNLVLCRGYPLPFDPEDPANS
# Test: holdup assay
# Parameters: key: below the threshold = too weak to quantify, mostly under pKd 3.1 to 4
# Details: plain residues with an end cap or a label only (N-terminal biotin on a linker: ado-ado)
row,Binder,pKd
1,B1,4.25
2,B2,below the threshold
3,B3,3.64
4,B4,below the threshold
5,B5,3.51

# Molecular target: MAST1, Q9Y2H9
# Sequence (Q9Y2H9 962-1065): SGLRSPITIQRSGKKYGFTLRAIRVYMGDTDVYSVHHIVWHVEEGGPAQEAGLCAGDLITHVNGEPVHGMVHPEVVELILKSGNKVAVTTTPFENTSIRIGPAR
# Test: holdup assay
# Parameters: key: below the threshold = too weak to quantify, mostly under pKd 3.1 to 4
# Details: plain residues with an end cap or a label only (N-terminal biotin on a linker: ado-ado)
row,Binder,pKd
1,B1,4.28
2,B2,below the threshold
3,B3,below the threshold
4,B4,below the threshold
5,B5,4.46

# Molecular target: T4, MPDZ_5, O75970
# Test: holdup assay
# Parameters: key: below the threshold = too weak to quantify, mostly under pKd 3.1 to 4
# Details: plain residues with an end cap or a label only (N-terminal biotin on a linker: ado-ado)
row,Binder,pKd
1,B1,below the threshold
2,B2,below the threshold
3,B3,below the threshold
4,B4,below the threshold
5,B5,below the threshold

# Molecular target: T5, MPP6, Q9NZW5
# Test: holdup assay
# Parameters: key: below the threshold = too weak to quantify, mostly under pKd 3.1 to 4
# Details: plain residues with an end cap or a label only (N-terminal biotin on a linker: ado-ado)
row,Binder,pKd
1,B1,3.89
2,B2,below the threshold
3,B3,below the threshold
4,B4,below the threshold
5,B5,3.81

# Molecular target: NHERF2_2, Q15599
# Sequence (Q15599 142-238): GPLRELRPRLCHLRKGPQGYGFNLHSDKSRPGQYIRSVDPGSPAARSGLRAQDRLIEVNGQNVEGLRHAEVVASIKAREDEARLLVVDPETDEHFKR
# Test: holdup assay
# Parameters: key: below the threshold = too weak to quantify, mostly under pKd 3.1 to 4
# Details: plain residues with an end cap or a label only (N-terminal biotin on a linker: ado-ado)
row,Binder,pKd
1,B1,4.11
2,B2,3.98
3,B3,3.47
4,B4,below the threshold
5,B5,3.69

# Molecular target: T6, NHERF3_1, Q5T2W1
# Test: holdup assay
# Parameters: key: below the threshold = too weak to quantify, mostly under pKd 3.1 to 4
# Details: plain residues with an end cap or a label only (N-terminal biotin on a linker: ado-ado)
row,Binder,pKd
1,B1,5.21
2,B2,3.75
3,B3,3.66
4,B4,below the threshold
5,B5,3.79

# Molecular target: T7, NHERF3_4, Q5T2W1
# Test: holdup assay
# Parameters: key: below the threshold = too weak to quantify, mostly under pKd 3.1 to 4
# Details: plain residues with an end cap or a label only (N-terminal biotin on a linker: ado-ado)
row,Binder,pKd
1,B1,3.57
2,B2,3.52
3,B3,below the threshold
4,B4,below the threshold
5,B5,below the threshold

# Molecular target: T8, PCLO, Q9Y6V0
# Test: holdup assay
# Parameters: key: below the threshold = too weak to quantify, mostly under pKd 3.1 to 4
# Details: plain residues with an end cap or a label only (N-terminal biotin on a linker: ado-ado)
row,Binder,pKd
1,B1,below the threshold
2,B2,below the threshold
3,B3,below the threshold
4,B4,below the threshold
5,B5,below the threshold

# Molecular target: T9, PDZD2_2, O15018
# Test: holdup assay
# Parameters: key: below the threshold = too weak to quantify, mostly under pKd 3.1 to 4
# Details: plain residues with an end cap or a label only (N-terminal biotin on a linker: ado-ado)
row,Binder,pKd
1,B1,4.23
2,B2,5.57
3,B3,4.45
4,B4,below the threshold
5,B5,4.97

# Molecular target: T10, SIPA1L2, Q9P2F8
# Test: holdup assay
# Parameters: key: below the threshold = too weak to quantify, mostly under pKd 3.1 to 4
# Details: plain residues with an end cap or a label only (N-terminal biotin on a linker: ado-ado)
row,Binder,pKd
1,B1,below the threshold
2,B2,below the threshold
3,B3,below the threshold
4,B4,below the threshold
5,B5,below the threshold

# Molecular target: T11, SNTA1, Q13424
# Test: holdup assay
# Parameters: key: below the threshold = too weak to quantify, mostly under pKd 3.1 to 4
# Details: plain residues with an end cap or a label only (N-terminal biotin on a linker: ado-ado)
row,Binder,pKd
1,B1,4.88
2,B2,below the threshold
3,B3,3.97
4,B4,below the threshold
5,B5,4.09
